Measured values published in the RNAGym collection of RNA variant scans (doi:10.1101/gr.219683.116).

B1: mRNA-splicing (parent)
chain: AGUUGCUGCUGGGAGCUCCAGCACAGUGAAAUGGACAGAAGGGCAGAGCAA

Variants of: B1
Assay: exon inclusion enrichment index; higher = more inclusion; WT1 exon 5 minigene, HEK293

First: G5C C6U G8C C9U U10C U32A G33U
Second: G5C C6U G8C C9U U10C U32A G33C
The “exon inclusion enrichment index” value of the first is lower: 1.25 for the first, 2.37 for the second.

First: G5C C6U G8C C9U U10C C36U A37C
Second: G5C C6U G8C C9U U10C C36U A37G
The “exon inclusion enrichment index” value of the first is lower: 1.55 for the first, 1.74 for the second.

Going from G5C C6U G8C C9U U10C C36U A37U to G5C C6U G8C C9U U10C U17C C18A, the “exon inclusion enrichment index” value rises from 1.12 to 1.45.

First: G5C C6U G8C C9U U10C U17C C18G
Second: G5C C6U G8C C9U U10C U17C C18U
The “exon inclusion enrichment index” value of the first is higher: 2.39 for the first, 1.9 for the second.

Compared with G5C U7C U10C, G5C C6U G8C C9U U10C C24U A25U is higher in “exon inclusion enrichment index” value: 0.696 for the first, 1.95 for the second.

Going from G5C C6U G8C C9U U10C C24U A25C to G5C C6U G8C C9U U10C C24U A25G, the “exon inclusion enrichment index” value falls from 3.44 to 3.05.

Going from G5C C6U U7G G8A C9U U10C to G5C C6U U7C G8A U10C, the “exon inclusion enrichment index” value rises from 1.49 to 1.77.

Going from G5C C6U U7C G8A U10A to G5C C6U G8C C9U U10C C19U A20G, the “exon inclusion enrichment index” value rises from 0.137 to 0.343.

First: G5C C6U G8C C9U U10C C19U A20C
Second: G5C C6U G8C C9U U10C C19U A20U
The “exon inclusion enrichment index” value of the first is higher: 0.957 for the first, 0.25 for the second.

First: G5C C6U G8C C9U U10C G42U G43A
Second: G5C C6U G8C C9U U10C G42U G43U
The “exon inclusion enrichment index” value of the first is higher: 3.34 for the first, 2.81 for the second.

Going from G5C C6U G8C C9U U10C G42U G43C to G5C C6U G8C C9U U10C G34A A35G, the “exon inclusion enrichment index” value falls from 1.23 to 0.76.

First: G5C C6U G8C C9U U10C G34A A35C
Second: G5C C6U G8C C9U U10C G34A A35U
The “exon inclusion enrichment index” value of the first is higher: 1.47 for the first, 0.568 for the second.

Going from G5C C6U G8C C9U U10C G34U A35G to G5C C6U G8C C9U U10C G34U A35U, the “exon inclusion enrichment index” value falls from 0.537 to 0.377.

Compared with G5C C6U G8C C9U U10C G34U A35C, G5C G8C C9U U10C is lower in “exon inclusion enrichment index” value: 0.683 for the first, 0.273 for the second.

Compared with G5C C6U U7G G8A U10A, G5C C6U G8C C9U U10G is higher in “exon inclusion enrichment index” value: 0.0911 for the first, 1.12 for the second.

Compared with G5C C6U G8U C9A U10C, G5C C6U G8C C9U U10C G11C G12C is higher in “exon inclusion enrichment index” value: 0.494 for the first, 0.631 for the second.

Going from G5C C6U G8C C9U U10C G11C G12A to G5C C6U G8C C9U U10C G11C G12U, the “exon inclusion enrichment index” value rises from 0.634 to 0.675.

Compared with G5C C6U G8C C9U U10C C36G A37G, G5C C6U G8C C9U U10C C36G A37U is higher in “exon inclusion enrichment index” value: 0.3 for the first, 0.948 for the second.

First: G5C C6U G8C C9U U10C C36G A37C
Second: G5C U7A U10C
The “exon inclusion enrichment index” value of the first is lower: 0.671 for the first, 1.62 for the second.

Going from G5C C6U G8C C9U U10C U17C to G5C C6U G8C C9U U10C U17G, the “exon inclusion enrichment index” value rises from 1.43 to 1.65.

Compared with G5C C6U G8C C9U U10C U17A, G5C C6U U7C C9A U10C is higher in “exon inclusion enrichment index” value: 1.95 for the first, 3.23 for the second.

First: G5U
Second: G5C C6U G8C C9U U10C G38A
The “exon inclusion enrichment index” value of the first is lower: 0.103 for the first, 1.01 for the second.

Going from G5C C6U G8C C9U U10C G38U to G5C C6U G8C C9U U10C G38C, the “exon inclusion enrichment index” value rises from 0.577 to 1.28.

First: G5C C6U G8C C9U U10C C19A A20C
Second: G5C C6U G8C C9U U10C C19A A20U
The “exon inclusion enrichment index” value of the first is higher: 0.813 for the first, 0.553 for the second.

Compared with G5C C6U G8C C9U U10C C19A A20G, G5C C6U G8C C9U U10C C24A is higher in “exon inclusion enrichment index” value: 0.213 for the first, 1.72 for the second.

Compared with G5C C6U G8C C9U U10C C24U, G5C C6U G8C C9U U10C C24G is higher in “exon inclusion enrichment index” value: 0.544 for the first, 2.4 for the second.

Compared with G5C C6U G8C C9U U10C G33U G34U, G5C C6U G8C C9U U10C G33U G34A is lower in “exon inclusion enrichment index” value: 0.282 for the first, 0.262 for the second.

First: G5C C6U G8C C9U U10C G33U G34C
Second: G5C C6U G8C C9U U10C G15C C16U
The “exon inclusion enrichment index” value of the first is lower: 0.547 for the first, 1.9 for the second.

Going from G5C C6U G8C C9U U10C G15C C16G to G5C C6U G8C C9U U10C G15C C16A, the “exon inclusion enrichment index” value falls from 2.09 to 1.75.

Going from G5U C6A U7C C9A U10C to G5C C6U G8C C9U U10C G12C G13A, the “exon inclusion enrichment index” value falls from 2.8 to 0.931.

Compared with G5C C6U G8C C9U U10C G12C G13C, G5C C6U G8C C9U U10C G12C G13U is lower in “exon inclusion enrichment index” value: 0.312 for the first, 0.036 for the second.

Compared with G5C C6U G8C C9U U10C G21U, G5C C6U G8C C9U U10C G21C is higher in “exon inclusion enrichment index” value: 1.22 for the first, 1.57 for the second.

First: G5C C6U G8C C9U U10C G21A
Second: G5C C6U G8C C9U U10C G26C U27C
The “exon inclusion enrichment index” value of the first is lower: 1.28 for the first, 3.12 for the second.

First: G5C C6U G8C C9U U10C G26C U27A
Second: G5C C6U G8C C9U U10C G26C U27G
The “exon inclusion enrichment index” value of the first is lower: 2.14 for the first, 3.22 for the second.

Compared with G5C U7G G8C C9U U10C, G5C U7C G8C C9U U10C is lower in “exon inclusion enrichment index” value: 0.323 for the first, 0.0413 for the second.

Going from G5C C6U G8C C9U U10C G42C G43C to G5C C6U G8C C9U U10C G42C G43A, the “exon inclusion enrichment index” value rises from 2.72 to 2.79.

First: G5C C6U G8C C9U U10C G42C G43U
Second: G5C C6U G8U C9G U10C
The “exon inclusion enrichment index” value of the first is higher: 2.87 for the first, 0.68 for the second.

Going from G5C U7G U10C to G5C C6U G8C C9U U10C G41A G42A, the “exon inclusion enrichment index” value rises from 1.34 to 1.54.

Compared with G5C C6U G8C C9U U10C G41A G42U, G5C C6U G8C C9U U10C G41A G42C is higher in “exon inclusion enrichment index” value: 1.71 for the first, 2.67 for the second.

Going from G5C C6U U7C U10C to G5C C6U G8C C9U U10C G13C A14C, the “exon inclusion enrichment index” value falls from 3.59 to 1.15.

Compared with G5C C6U G8C C9U U10C G13C A14G, G5C C6U G8C C9U U10C G13C A14U is lower in “exon inclusion enrichment index” value: 1.94 for the first, 1.35 for the second.

First: G5C C6U G8C C9U U10C G26U U27C
Second: G5C C6U G8C C9U U10C G26U U27G
The “exon inclusion enrichment index” value of the first is higher: 3.41 for the first, 2.97 for the second.
